Laboratory results from paper PMC9693643, “Aminoquinolones and Their Benzoquinone Dimer Hybrids as Modulators of Prion Protein Conversion” (Molecules, 2022).

Target: the molecule itself
Assay: RT-QuIC (seeded fibril conversion, thioflavin T fluorescence)

B1: murine recombinant full-length prion protein (PrP23-231) (natural protein)
chain: not shown
notes: also called recombinant PrP; PrP23-231 fibril seed
binding result: binds
